Results on 57 substances are retold here after patent publication US11872270B2, “A*03 restricted peptides for use in immunotherapy against cancers and related methods” (Immatics Biotechnologies GmbH, priority 2018, dated 2024).

This assay has as its target HLA-A*03:01 (Homo sapiens, UniProt P04439). Nature of the assay: MHC binding assay (UV-ligand exchange, β2m ELISA). The conditions noted are these: binding to HLA-A*03:01, UV-ligand exchange, β2m ELISA. The source says:
Candidate peptides for T cell based therapies according to the present invention were further tested for their MHC binding capacity (affinity). The individual peptide-MHC complexes were produced by UV-ligand exchange, where a UV-sensitive peptide is cleaved upon UV-irradiation and exchanged with the peptide of interest as analyzed. Only peptide candidates that can effectively bind and stabilize the peptide-receptive MHC molecules prevent dissociation of the MHC complexes. To determine the yield of the exchange reaction, an ELISA was performed based on the detection of the light chain (β2m) of stabilized MHC complexes. The assay was performed as generally described in Rodenko et al. (Rodenko et al., 2006) 96 well MAXISorp plates (NUNC) were coated over night with 2 ug/ml streptavidin in PBS at room temperature, washed 4× and blocked for 1 h at 37° C. in 2% BSA containing blocking buffer. Refolded HLA-A*02:01/MLA-001 monomers served as standards, covering the range of 15-500 ng/ml. Peptide-MHC monomers of the UV-exchange reaction were diluted 100-fold in blocking buffer. Samples were incubated for 1 h at 37° C., washed four times, incubated with 2 ug/ml HRP conjugated anti-β2m for 1 h at 37° C., washed again and detected with TMB solution that is stopped with […]. Absorption was measured at 450 nm. Candidate peptides that show a high exchange yield (preferably higher than 50%, most preferred higher than 75%) are generally preferred for a generation and production of antibodies or fragments thereof, and/or T cell receptors or fragments thereof, as they show sufficient avidity to the MHC molecules and prevent dissociation of the MHC complexes.
Turning to “142 (SPRVYWLGLNDR; listed as Homo sapiens) [compound 142]”, the “Peptide exchange (MHC class I binding score, peptide exchange yield)” value (shortened to “Peptide exchange”) is reported as “+ (>10% = +)”.

Turning to “143 (KTLGKIAEK; listed as Homo sapiens) [compound 143]”, the “Peptide exchange” value is listed as “++++ (>75% = ++++)”.

For “144 (PLAMLAATCNK; listed as Homo sapiens) [compound 144]”, the “Peptide exchange” value is given as “++ (>20% = ++)”.

In the case of “145 (SLFEGIYTIK; listed as Homo sapiens) [compound 145]”, the “Peptide exchange” value is on record as “++++ (>75% = ++++)”.

For the substance “146 (TLLSYELAFK; listed as Homo sapiens) [compound 146]”, the “Peptide exchange” value is given as “++++ (>75% = ++++)”.

“147 (KLFMPRPK; listed as Homo sapiens) [compound 147]”: the “Peptide exchange” value is given as “+++ (>50 = +++)”.

On to “148 (RIGNKGIYK; listed as Homo sapiens) [compound 148]”, for which the “Peptide exchange” value is reported as “+++ (>50 = +++)”.

Consider “149 (TVFLSKYLKK; listed as Homo sapiens) [compound 149]”, for which the “Peptide exchange” value is “+++ (>50 = +++)”.

For the substance “150 (LLLAAVTVK; listed as Homo sapiens) [compound 150]”, the “Peptide exchange” value was “++ (>20% = ++)”.

In the case of “151 (KVASFTVIGY; listed as Homo sapiens) [compound 151]”, the “Peptide exchange” value is given as “+++ (>50 = +++)”.

As for “152 (KIICGVHYLY; listed as Homo sapiens) [compound 152]”, the “Peptide exchange” value is listed as “+ (>10% = +)”.

As to “153 (LASSPAGHK; listed as Homo sapiens) [compound 153]”, the “Peptide exchange” value was “+++ (>50 = +++)”.

As for “154 (TIASVLVAR; listed as Homo sapiens) [compound 154]”, the “Peptide exchange” value is listed as “++ (>20% = ++)”.

For “156 (VSLGIAVSK; listed as Homo sapiens) [compound 156]”, the “Peptide exchange” value is “++ (>20% = ++)”.

As to “158 (RALGVPFVPR; listed as Homo sapiens) [compound 158]”, the “Peptide exchange” value is on record as “++++ (>75% = ++++)”.

Take “160 (RLLPGKVVWK; listed as Homo sapiens) [compound 160]”: the “Peptide exchange” value was “++++ (>75% = ++++)”.

With “161 (MKTLPAMLGTGK; listed as Homo sapiens) [compound 161]”, the “Peptide exchange” value was “++ (>20% = ++)”.

On to “163 (MLYYPSVSR; listed as Homo sapiens) [compound 163]”, for which the “Peptide exchange” value is on record as “++++ (>75% = ++++)”.

In the case of “164 (RLAQYTIER; listed as Homo sapiens) [compound 164]”, the “Peptide exchange” value is listed as “++++ (>75% = ++++)”.

Regarding “165 (AATIISSAK; listed as Homo sapiens) [compound 165]”, the “Peptide exchange” value is on record as “+ (>10% = +)”.

Regarding “168 (ATNGKVLKK; listed as Homo sapiens) [compound 168]”, the “Peptide exchange” value is “++++ (>75% = ++++)”.

Turning to “169 (ATNGKVLKKR; listed as Homo sapiens) [compound 169]”, the “Peptide exchange” value is given as “++++ (>75% = ++++)”.

For “171 (ATIGLSVSK; listed as Homo sapiens) [compound 171]”, the “Peptide exchange” value is “++++ (>75% = ++++)”.

On to “172 (SLLEADPFLK; listed as Homo sapiens) [compound 172]”, for which the “Peptide exchange” value was “+++ (>50 = +++)”.

Regarding “173 (VSYNRLIK; listed as Homo sapiens) [compound 173]”, the “Peptide exchange” value is listed as “+++ (>50 = +++)”.

“174 (KMMKRLMTVEK; listed as Homo sapiens) [compound 174]”: the “Peptide exchange” value was “++++ (>75% = ++++)”.

As for “175 (VIGTTSSPK; listed as Homo sapiens) [compound 175]”, the “Peptide exchange” value was “+++ (>50 = +++)”.

With “176 (RLYDAYVNR; listed as Homo sapiens) [compound 176]”, the “Peptide exchange” value is “++++ (>75% = ++++)”.

For “177 (ALLGVIIAKK; listed as Homo sapiens) [compound 177]”, the “Peptide exchange” value is reported as “++++ (>75% = ++++)”.

Consider “178 (RIYVYVKRK; listed as Homo sapiens) [compound 178]”, for which the “Peptide exchange” value is given as “+++ (>50 = +++)”.

For “179 (KINPTASLK; listed as Homo sapiens) [compound 179]”, the “Peptide exchange” value was “+++ (>50 = +++)”.

On to “180 (RLKMAQESVSK; listed as Homo sapiens) [compound 180]”, for which the “Peptide exchange” value is reported as “++++ (>75% = ++++)”.

For the substance “181 (RVAEEILIK; listed as Homo sapiens) [compound 181]”, the “Peptide exchange” value was “+++ (>50 = +++)”.

In the case of “182 (QICLPAIYK; listed as Homo sapiens) [compound 182]”, the “Peptide exchange” value was “++++ (>75% = ++++)”.

“183 (KVYIPPIINK; listed as Homo sapiens) [compound 183]”: the “Peptide exchange” value is “++++ (>75% = ++++)”.

“184 (KVLEPPLGAR; listed as Homo sapiens) [compound 184]”: the “Peptide exchange” value is recorded as “+++ (>50 = +++)”.

Consider “185 (SIINFKPLTY; listed as Homo sapiens) [compound 185]”, for which the “Peptide exchange” value is listed as “+++ (>50 = +++)”.

“187 (KTCQVSGLLY; listed as Homo sapiens) [compound 187]”: the “Peptide exchange” value is given as “++++ (>75% = ++++)”.

Regarding “188 (SSLPRAFQK; listed as Homo sapiens) [compound 188]”, the “Peptide exchange” value was “++ (>20% = ++)”.

In the case of “189 (KVFEEPEDFLK; listed as Homo sapiens) [compound 189]”, the “Peptide exchange” value is given as “++ (>20% = ++)”.

As for “190 (RSKWSNVFK; listed as Homo sapiens) [compound 190]”, the “Peptide exchange” value is listed as “++++ (>75% = ++++)”.

With “191 (SLYNLGGAK; listed as Homo sapiens) [compound 191]”, the “Peptide exchange” value is recorded as “++++ (>75% = ++++)”.

Take “192 (RSYSHVVLK; listed as Homo sapiens) [compound 192]”: the “Peptide exchange” value is recorded as “++++ (>75% = ++++)”.

“193 (IVYPSATDKTK; listed as Homo sapiens) [compound 193]”: the “Peptide exchange” value is given as “+++ (>50 = +++)”.

As for “195 (KLQAKVLQY; listed as Homo sapiens) [compound 195]”, the “Peptide exchange” value was “++++ (>75% = ++++)”.

Regarding “196 (AISSTVLGK; listed as Homo sapiens) [compound 196]”, the “Peptide exchange” value is recorded as “++++ (>75% = ++++)”.

For “197 (RIVDYLLEK; listed as Homo sapiens) [compound 197]”, the “Peptide exchange” value is “++++ (>75% = ++++)”.

“199 (IVFPDVISK; listed as Homo sapiens) [compound 199]”: the “Peptide exchange” value is on record as “++++ (>75% = ++++)”.

For “200 (RVLPPLTRILK; listed as Homo sapiens) [compound 200]”, the “Peptide exchange” value is listed as “++++ (>75% = ++++)”.

Consider “201 (KVADFGLARLLK; listed as Homo sapiens) [compound 201]”, for which the “Peptide exchange” value was “++++ (>75% = ++++)”.

Turning to “202 (RLFPGLYLGY; listed as Homo sapiens) [compound 202]”, the “Peptide exchange” value was “+++ (>50 = +++)”.

On to “203 (IVAFIPLSNK; listed as Homo sapiens) [compound 203]”, for which the “Peptide exchange” value is listed as “++++ (>75% = ++++)”.

Take “204 (VAFIPLSNK; listed as Homo sapiens) [compound 204]”: the “Peptide exchange” value is on record as “++++ (>75% = ++++)”.

As for “205 (RVYPRPPSK; listed as Homo sapiens) [compound 205]”, the “Peptide exchange” value was “++++ (>75% = ++++)”.

For the substance “206 (RLYEMILQR; listed as Homo sapiens) [compound 206]”, the “Peptide exchange” value was “++++ (>75% = ++++)”.

Regarding “208 (KTGWFTLLY; listed as Homo sapiens) [compound 208]”, the “Peptide exchange” value is reported as “++++ (>75% = ++++)”.

As for “209 (KILDRVLSRY; listed as Homo sapiens) [compound 209]”, the “Peptide exchange” value is listed as “++++ (>75% = ++++)”.
